B1: 62H12 (antibody, V domains shown)
VH: QSVKESGGRLVTPGTPLTLICTVSGFSLSRYAVGWVRQAPGKGLEWIGYIWSGGYTDYANWAKGRFTISKTSTTVDLKITSPTTEDTATYFCAREGDSDDYIYLNLWGPGTLVTVSS
VL: ALVMTQTPSSVSAAVGGTVTINCQASESISSYLAWYQQKSGQPPKLLIYRASTLASGVPSRFKGSGSGTEFTLTIGDLECADAATYYCQQGYTSFNVDKAFGGGTEVVVK
notes: Rabbit monoclonal antibody (GenScript MonoRab); also called 62H12-1; 62H2
B2: 61A11 (antibody, V domains shown)
VH: QSVEESGGRLVTPGTPLTLTCTVSGIDLSSYVMGWVRQAPGKGLDWIGMIDTHDDTYFAPWARGRFTISRTSSTTVDLKVASTTTEDTATYFCAGNLALWGRGTLVTVSS
VL: AQVLTQTPSPVSVAVGGTVTISCQSSQSVSSDNWLGWYQQKPGQPPKLLIYRASKLASGVSSRFKGSGSGTQFILTISDLECDDAATYYCAGGYSGSIIAFGGGTEVVVK
notes: Rabbit monoclonal antibody; also called 61A11-1
B3: MT1035 (bispecific antibody)
nanobody concatemer: QVQLVESGGDLVQAGGSLRLSCAVSGGTSSNYGMGWFRQAPGKEREFVSSISWSGSRTLYSDSVKGRFTISRDNAKNTVDLQMNSLKPEDTAVYYCTAVREYRDYPQRDNFDYWGQGTQVTVSGGGGSGGGGSGGGGSGGGGSDAAARDAAARDAAARGGGGSGGGGSGGGGSGGGGSMAQVQLVESGGDLVQAGGSLRLSCAVSGGTSSNYGMGWFRQAPGKEREFVSSISWSGSRTLYSDSVKGRFTISRDNAKNTVDLQMNSLKPEDTAVYYCTAVREYRDYPQRDNFDYWGQGTQVTVSCGSGRCGSGRCGSGRCGSGRC
modifications: biotinylated on the C-terminal cysteine residues when used as detector
notes: also called Nb5-Nb5-7Cys anti-ORF1 Nb dimer 10 (long linker v2); 5-5-cys(long2)
B4: MT1037 (bispecific antibody)
nanobody concatemer: QVQLVESGGDLVQAGGSLRLSCAVSGGTSSNYGMGWFRQAPGKEREFVSSISWSGSRTLYSDSVKGRFTISRDNAKNTVDLQMNSLKPEDTAVYYCTAVREYRDYPQRDNFDYWGQGTQVTVSGGGGSGGGGSGGGGSGGGGSDAAARDAAARDAAARGGGGSGGGGSGGGGSGGGGSGSMAQVHLVESGGKLVQAGESLKLSCEVSGRTFSISGAGWFRQAPGKEREFVAAITWTGGYPYYDASVKGRFTISREDPDNTVYLSMNSLKPEDTAVYYCATRRAGDLDFSYAQQGRYDNWGQGTQVTVSCGSGRCGSGRCGSGRCGSGRC
modifications: biotinylated on the C-terminal cysteine residues when used as detector
notes: also called Nb5-Nb9-7Cys anti-ORF1 Nb dimer 12 (long linker v2); 5-9-cys(long2)
B5: MT1036 (other)
nanobody concatemer: DVQLVESGGGLVQAGGSLRLSCAASGRTDDIYTMGWFRQGPGKEREFVAVISWSITRRSSITHYADSVKGRFTISGENAENTVYLQMNTLKPEDTAVYYCAAKTGYSGSMSSYQDYDSWGQGTQVTVSGGGGSGGGGSGGGGSGGGGSDAAARDAAARDAAARGGGGSGGGGSGGGGSGGGGSGSMAQVHLVESGGKLVQAGESLKLSCEVSGRTFSISGAGWFRQAPGKEREFVAAITWTGGYPYYDASVKGRFTISREDPDNTVYLSMNSLKPEDTAVYYCATRRAGDLDFSYAQQGRYDNWGQGTQVTVSCGSGRCGSGRCGSGRCGSGRC
modifications: biotinylated on the C-terminal cysteine residues when used as detector
notes: also called Nb2-Nb9-7Cys anti-ORF1 Nb dimer 11 (long linker v2); 2-9-cys(long2)
B6: MT1038 (other)
nanobody concatemer: QVHLVESGGKLVQAGESLKLSCEVSGRTFSISGAGWFRQAPGKEREFVAAITWTGGYPYYDASVKGRFTISREDPDNTVYLSMNSLKPEDTAVYYCATRRAGDLDFSYAQQGRYDNWGQGTQVTVSGGGGSGGGGSGGGGSGGGGSDAAARDAAARDAAARGGGGSGGGGSGGGGSGGGGSGSMAQVHLVESGGKLVQAGESLKLSCEVSGRTFSISGAGWFRQAPGKEREFVAAITWTGGYPYYDASVKGRFTISREDPDNTVYLSMNSLKPEDTAVYYCATRRAGDLDFSYAQQGRYDNWGQGTQVTVSCGSGRCGSGRCGSGRCGSGRC
modifications: biotinylated on the C-terminal cysteine residues when used as detector
notes: also called Nb9-Nb9-7Cys anti-ORF1 Nb dimer 13 (long linker v2); 9-9-cys(long2)
B7: MT1032 (bispecific antibody)
nanobody concatemer: QVQLVESGGDLVQAGGSLRLSCAVSGGTSSNYGMGWFRQAPGKEREFVSSISWSGSRTLYSDSVKGRFTISRDNAKNTVDLQMNSLKPEDTAVYYCTAVREYRDYPQRDNFDYWGQGTQVTVSGGGGSGGGGSGGGGSGGGGSMAQVQLVESGGDLVQAGGSLRLSCAVSGGTSSNYGMGWFRQAPGKEREFVSSISWSGSRTLYSDSVKGRFTISRDNAKNTVDLQMNSLKPEDTAVYYCTAVREYRDYPQRDNFDYWGQGTQVTVSCGSGRCGSGRCGSGRCGSGRC
modifications: biotinylated on the C-terminal cysteine residues when used as detector
notes: also called Nb5-Nb5-7Cys anti-ORF1 Nb dimer 7 (short linker); Nb 5-5-cys (short)

One assay addresses T1, recombinant human ORF1p (LINE-1 open reading frame 1 protein, L1RP) (human, UniProt Q9UN81 1-338).
T1 construct: Expressed in E. coli, tag cleaved, monodisperse homotrimer; Immobilized on the CM5 chip in SPR; also called trimeric ORF1p
T1 sequence: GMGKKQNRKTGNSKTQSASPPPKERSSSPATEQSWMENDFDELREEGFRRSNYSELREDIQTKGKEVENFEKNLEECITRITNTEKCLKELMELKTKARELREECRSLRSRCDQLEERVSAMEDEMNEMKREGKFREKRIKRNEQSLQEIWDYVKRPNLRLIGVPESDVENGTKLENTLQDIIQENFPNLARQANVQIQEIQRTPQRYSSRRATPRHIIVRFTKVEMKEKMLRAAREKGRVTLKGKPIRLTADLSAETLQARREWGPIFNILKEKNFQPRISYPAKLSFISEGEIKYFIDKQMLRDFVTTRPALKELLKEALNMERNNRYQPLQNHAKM
The assay can be described thus: Simoa sandwich, recombinant ORF1p at 40 pg/mL in diluent buffer, signal/background heat map; capture on the x axis, detector on the y axis. The procedure: ORF1p Simoa assays. Simoa assays were performed on an HD-X Analyzer (Quanterix Corp.), with all assay reagents and consumables loaded onto the instrument according to the manufacturer's instructions. 250,000 capture beads and 250,000 helper (non-conjugated) beads were used in each Simoa assay. A three-step assay configuration was used for the first- and second-generation assays, consisting of a 15-minute target capture step (incubation of capture beads with 100 μL sample), 5-minute incubation with detector reagent (0.3 μg/mL for both first- and second-generation assays), and 5-minute incubation with streptavidin-β-galactosidase (150 pM for first-generation assay; 300 pM for second-generation assays). The beads were washed with System Wash Buffer 1 (Quanterix Corp.) after each assay step. Upon the final wash cycle, the beads were loaded together with the fluorogenic enzyme substrate resorufin β-D-galactopyranoside into a 216,000-microwell array, which was subsequently sealed with oil. Automated imaging and counting of “on” and “off” wells and calculation of average enzyme per bead (AEB) were performed by the instrument. Calibration curves were fit using a 4PL fit with a 1/y² weighting factor, and the limit of detection (LOD) was determined as three standard deviations above the blank.
Signal/background was also determined for a number of the pairs by Simoa using recombinant ORF1p protein in diluent buffer; the results are shown in FIG. 15. When the rabbit monoclonal antibodies were used as capture and detector, the background was high. The best combinations were the rabbit monoclonal antibodies as capture/Ab6 detector; Nb5-5 capture/rabbit monoclonal antibodies detector; and 4H1 capture/rabbit monoclonal antibody detector pairs.
Take B1: the binding result is “binds”.
On the same count and under the same terms, in the case of B2 it was “binds”.

Another assay has as its target T1, recombinant human ORF1p (LINE-1 open …). As to the kind of experiment: Simoa sandwich calibration curves, panels titled capture/detector; AEB against recombinant ORF1p (axis 0.001-1000 pg/mL, log-log); dotted line = limit of detection.
For the molecule B3, the binding result is on record as “binds”.
Turning to B4, the binding result was “binds”.
As for B5, the binding result is “binds”.
Turning to B6, the binding result is recorded as “binds”.
As to B7, the binding result is listed as “binds”.
